According to publication PMC10393992 (Nature Communications, 2023):

Molecular target: the molecule itself
Assay: SEC; Superdex 75 10/300 GL; 20 mM NaCl, 25 mM HEPES, 0.2 mM 2-mercaptoethanol; size from a calibration curve of marker proteins

B1: His-CIP4-HR1 (domain or fragment, Mus musculus, UniProt Q8CJ53-3 339-425, looked up)
chain: PPEQQRKRLQQQLEERNRELQKEEDQREALKKMKDVYEKTPQMGDPASLEPRIAETLGNIERLKLEVQKYEAWLAEAESRVLSNRGD
notes: CIP4, Mus musculus, HR1, a.a; 339-425; numbers count on: UniProt Q8CJ53-3; also called homology region 1 of CIP4; source: E. coli BL21-CodonPlus (DE3)-RIL, purified (Ni-NTA agarose, dialysis)
  stoichiometry N: 2
